Measurements from PMC9401524 (Cancer Discovery, 2021).
Marks after values point to notes of the source that are not given here.

Tests used:
[1] = Phase I study U31402-A-U102, HER3-DXd i.v. once every 3 weeks: safety; type: in vivo, human
[2] = system: EGFR-mutated NSCLC; conditions: cited from earlier work
[3] = all patients 3.2/4.8/5.6/6.4 mg/kg (n = 81)

Molecule: Patritumab deruxtecan [HER3-DXd]
- Patients who experienced dose-limiting toxicities ([1]; 4.8 mg/kg dose group, grade 3 neutrophil count decreased, grade 4 platelet count decrease, white blood cell count decrease): 1 patient
- Patients who experienced dose-limiting toxicities ([1]; 6.4 mg/kg dose group, grade 4 platelet count decrease): 3 patients
- Patients who experienced dose-limiting toxicities ([1]; […] dose group, grade 3 febrile neutropenia and grade 4 platelet count decrease): 1 patient
- Adjudicated treatment-related ILD, patients ([1]; all doses (4/81)): 5%
- TEAEs associated with death, patients ([1]; all doses (5/81), none judged related to study treatment): 6%
- Treatment discontinued due to TEAEs, patients ([1]; all doses (7/81)): 9%
- Grade 4 thrombocytopenia, patients ([1]; all doses (11/81)): 13.6%
- Grade ≥3 neutropenia, patients ([1]; all doses (12/81)): 15%
- TEAEs associated with dose reduction, patients ([1]; all doses (18/81)): 22%
- Grade ≥3 thrombocytopenia, patients ([1]; all doses (21/81)): 26%
- TEAEs associated with dose interruption, patients ([1]; all doses (30/81)): 37%
- TEAE nausea, patients ([1]; all doses (49/81)): 60%
- Grade ≥3 TEAEs, patients ([1]; all doses (52/81)): 64%
- TEAE fatigue, patients ([1]; all doses (52/81)): 64%
- Adjudicated ILD [1, 3]: 5 (6)^e n (%)
- Adjudicated treatment-related ILD [1, 3]: 4 (5)^f n (%)
- Any TEAE [1, 3]: 81 (100) n (%)
- Grade ≥3 TEAE: Anemia/hemoglobin decrease [1, 3]: 6 (7) n (%)
- Grade ≥3 TEAE: Dyspnea [1, 3]: 5 (6) n (%)
- Grade ≥3 TEAE: Fatigue [1, 3]: 8 (10) n (%)
- Grade ≥3 TEAE: Febrile neutropenia [1, 3]: 5 (6) n (%)
- Grade ≥3 TEAE: Hypokalemia [1, 3]: 4 (5) n (%)
- Grade ≥3 TEAE: Hypoxia [1, 3]: 5 (6) n (%)
- Grade ≥3 TEAE: Lymphocyte count decrease/lymphopenia [1, 3]: 4 (5) n (%)
- Grade ≥3 TEAE: Neutrophil count decrease/neutropenia [1, 3]: 12 (15) n (%)
- Grade ≥3 TEAE: Platelet count decrease/thrombocytopenia [1, 3]: 21 (26) n (%)
- Grade ≥3 TEAE: White blood cell count decrease/leukopenia [1, 3]: 5 (6) n (%)
- Grade ≥3 TEAEs [1, 3]: 52 (64) n (%)
- Grade ≥3 treatment-related TEAEs [1, 3]: 38 (47) n (%)
- Serious TEAEs [1, 3]: 32 (40) n (%)
- Serious treatment-related TEAEs [1, 3]: 15 (19) n (%)
- TEAEs associated with death [1, 3]: 5 (6)^d n (%)
- TEAEs associated with dose interruption [1, 3]: 30 (37) n (%)
- TEAEs associated with dose reduction [1, 3]: 18 (22) n (%)
- TEAEs associated with treatment discontinuation [1, 3]: 7 (9)^b n (%)
- Treatment-related TEAEs [1, 3]: 78 (96) n (%)
- Treatment-related TEAEs associated with death [1, 3]: 0 n (%)
- Patients who experienced dose-limiting toxicities ([1]; dose escalation part, 36 patients): 5 patients
- Recommended dose for expansion (RDE) ([1]; i.v. once every 3 weeks): 5.6 mg/kg
- TEAEs associated with dose interruption ([1]; pooled RDE […] (n = 57)): 21 (37) n (%)
- TEAEs associated with dose reduction ([1]; pooled RDE […] (n = 57)): 12 (21) n (%)

Molecule: C=CC(=O)Nc1cc(Nc2nccc(-c3cn(C)c4ccccc34)n2)c(OC)cc1N(C)CCN(C)C [osimertinib, reference compound]
- Median OS ([2]; third-generation EGFR TKI compared with first-generation EGFR TKIs): 38.6 months

B1: seribantumab (antibody, chains of the INN, looked up)
heavy: EVQLLESGGGLVQPGGSLRLSCAASGFTFSHYVMAWVRQAPGKGLEWVSSISSSGGWTLYADSVKGRFTISRDNSKNTLYLQMNSLRAEDTAVYYCTRGLKMATIFDYWGQGTLVTVSSASTKGPSVFPLAPCSRSTSESTAALGCLVKDYFPEPVTVSWNSGALTSGVHTFPAVLQSSGLYSLSSVVTVPSSNFGTQTYTCNVDHKPSNTKVDKTVERKCCVECPPCPAPPVAGPSVFLFPPKPKDTLMISRTPEVTCVVVDVSHEDPEVQFNWYVDGVEVHNAKTKPREEQFNSTFRVVSVLTVVHQDWLNGKEYKCKVSNKGLPAPIEKTISKTKGQPREPQVYTLPPSREEMTKNQVSLTCLVKGFYPSDIAVEWESNGQPENNYKTTPPMLDSDGSFFLYSKLTVDKSRWQQGNVFSCSVMHEALHNHYTQKSLSLSPG
light: QSALTQPASVSGSPGQSITISCTGTSSDVGSYNVVSWYQQHPGKAPKLIIYEVSQRPSGVSNRFSGSKSGNTASLTISGLQTEDEADYYCCSYAGSSIFVIFGGGTKVTVLGQPKAAPSVTLFPPSSEELQANKATLVCLVSDFYPGAVTVAWKADGSPVKVGVETTKPSKQSNNKYAASSYLSLTPEQWKSHRSYSCRVTHEGSTVEKTVAPAECS
- Efficacy of unconjugated HER3 antibody ([2]; in combination with erlotinib): did not confer clinically meaningful efficacy
